According to publication doi:10.1101/2025.06.28.662095, “Mechanistic insights into the allosteric regulation of cell wall hydrolase RipA in Mycobacterium tuberculosis” (bioRxiv, 2025):

Biological target: T1, MtSteBΔTM (M. tuberculosis SteB devoid of its TM domain, residues 38-314) (Mycobacterium tuberculosis, UniProt P9WJ83 38-314)
T1 construct: Homodimer in both crystal structures; also called Rv1698; MctB; not shown: 6xHis-SUMO, N-terminal, cleaved
Assay: BLI; biotinylated MtRipACC immobilised on streptavidin biosensors; 25°C; 25 mM HEPES pH 7.5, 150 mM NaCl, 5% glycerol, BSA 1 mg/mL, 0.05% Tween 20; steady-state signal versus concentration, one-site binding model; apparent Kd
Conditions: both partners purified

B1: MtRipACC (coiled-coil domain of M. tuberculosis RipA, residues 40-240) (domain or fragment)
chain: DPQTDTIAALIADVAKANQRLQDLSDEVQAEQESVNKAMVDVETARDNAAAAEDDLEVSQRAVKDANAAIAAAQHRFDTFAAATYMNGPSVSYLSASSPDEIIATVTAAKTLSASSQAVMANLQRARTERVNTESAARLAKQKADKAAADAKASQDAAVAALTETRRKFDEQREEVQRLAAERDAAQARLQAARLVAWSSE
modifications: biotinylated with EZ-Link NHS-PEG4-Biotin (20 molar excess) for the BLI assays
notes: also called RipA coiled-coil (CC) domain; MtRipA CC domain; not shown: 6xHis-SUMO, N-terminal, cleaved
Q: For B1, which Kd is on record?
A: 42.6 ± 4.4 µM
